In article PMC11098746 (2024):

B1: ADP103 (protein)
chain: MAAALFVLLGFALLGTHGASGAAGFVQAPLSQQRWVGGSVELHCEAVGSPVPEIQWWFEGQGPNDTCSQLWDGARLDRVHIHATYHQHAASTISIDTLVEEDTGTYECRASNDPDRNHLTRAPRVKWVRAQAVVLVLEPGTVFTTVEDLGSKILLTCSLNDSATEVTGHRWLKGGVVLKEDALPGQKTEFKVDSDDQWGEYSCVFLPEPMGTANIQLHGPPRVKAVKSSEHINEGETAMLVCKSESVPPVTDWAWYKITDSEDKALMNGSESRFFVSSSQGRSELHIENLNMEADPGQYRCNGTSSKGSDQAIITLRVRSHL
modifications: bait human Fc-tagged dimer
B2: ADP141 (protein)
chain: MGRLASRPLLLALLSLALCRGRVVRVPTATLVRVVGTELVIPCNVSDYDGPSEQNFDWSFSSLGSSFVELASTWEVGFPAQLYQERLQRGEILLRRTANDAVELHIKNVQPSDQGHYKCSTPSTDATVQGNYEDTVQVKVLADSLHVGPSARPPPSLSLREGEPFELRCTAASASPLHTHLALLWEVHRGPARRSVLALTHEGRFHPGLGYEQRYHSGDVRLDTVGSDAYRLSVSRALSADQGSYRCIVSEWIAEQGNWQEIQEKAVEVATVVIQPSVLRAAVPKNVSVAEGKELDLTCNITTDRADDVRPEVTWSFSRMPDSTLPGSRVLARLDRDSLVHSSPHVALSHVDARSYHLLVRDVSKENSGYYYCHVSLWAPGHNRSWHKVAEAVSSPAGVGVTWLEPDYQVYLNASKVPGFADDPTELACRVVDTKSGEANVRFTVSWYYRMNRRSDNVVTSELLAVMDGDWTLKYGERSKQRAQDGDFIFSKEHTDTFNFRIQRTTEEDRGNYYCVVSAWTKQRNNSWVKSKDVFSKPVNIFWALEDSVLVVKARQPKPFFAAGNTFEMTCKVSSKNIKSPRYSVLIMAEKPVGDLSSPNETKYIISLDQDSVVKLENWTDASRVDGVVLEKVQEDEFRYRMYQTQVSDAGLYRCMVTAWSPVRGSLWREAATSLSNPIEIDFQTSGPIFNASVHSDTPSVIRGDLIKLFCIITVEGAALDPDDMAFDVSWFAVHSFGLDKAPVLLSSLDRKGIVTTSRRDWKSDLSLERVSVLEFLLQVHGSEDQDFGNYYCSVTPWVKSPTGSWQKEAEIHSKPVFITVKMDVLNAFKYP
modifications: bait human Fc-tagged dimer
B3: ADP361 (protein)
chain: MAPPQVLAFGLLLAAATATFAAAQEECVCENYKLAVNCFVNNNRQCQCTSVGAQNTVICSKLAAKCLVMKAEMNGSKLGRRAKPEGALQNNDGLYDPDCDESGLFKAKQCNGTSMCWCVNTAGVRRTDKDTEITCSERVRTYWIIIELKHKAREKPYDSKSLRTALQKEITTRYQLDPKFITSILYENNVITIDLVQNSSQKTQNDVDIADVAYYFEKDVKGESLFHSKKMDLTVNGEQLDLDPGQTLIYYVDEKAPEFSMQGLKAG
modifications: bait human Fc-tagged dimer
B4: ADP276 (protein)
chain: DRGHLDYPRNPRREGSFPQGQLSMLQEKIDHLERLLAENNEIISNIRDSVINLSESVEDGPKSSQSNFSQGAGSHLLPSQLSLSVDTADCLFASQSGSHNSDVQMLDVYSLISFDNPDGGVWKQGFDITYESNEWDTEPLQVFVVPHSHNDPGWLKTFNDYFRDKTQYIFNNMVLKLKEDSRRKFIWSEISYLSKWWDIIDIQKKDAVKSLIENGQLEIVTGGWVMPDEATPHYFALIDQLIEGHQWLENNIGVKPRSGWAIDPFGHSPTMAYLLNRAGLSHMLIQRVHYAVKKHFALHKTLEFFWRQNWDLGSVTDILCHMMPFYSYDIPHTCGPDPKICCQFDFKRLPGGRFGCPWGVPPETIHPGNVQSRARMLLDQYRKKSKLFRTKVLLAPLGDDFRYCEYTEWDLQFKNYQQLFDYMNSQSKFKVKIQFGTLSDFFDALDKADETQRDKGQSMFPVLSGDFFTYADRDDHYWSGYFTSRPFYKRMDRIMESHLRAAEILYYFALRQAHKYKINKFLSSSLYTALTEARRNLGLFQHHDAITGTAKDWVVVDYGTRLFHSLMVLEKIIGNSAFLLILKDKLTYDSYSPDTFLEMDLKQKSQDSLPQKNIIRLSAEPRYLVVYNPLEQDRISLVSVYVSSPTVQVFSASGKPVEVQVSAVWDTANTISETAYEISFRAHIPPLGLKVYKILESASSNSHLADYVLYKNKVEDSGIFTIKNMINTEEGITLENSFVLLRFDQTGLMKQMMTKEDGKHHEVNVQFSWYGTTIKRDKSGAYLFLPDGNAKPYVYTTPPFVRVTHGRIYSEVTCFFDHVTHRVRLYHIQGIEGQSVEVSNIVDIRKVYNREIAMKISSDIKSQNRFYTDLNGYQIQPRMTLSKLPLQANVYPMTTMAYIQDAKHRLTLLSAQSLGVSSLNSGQIEVIMDRRLMQDDNRGLEQGIQDNKITANLFRILLEKRSAVNTEEEKKSVSYPSLLSHITSSLMNHPVIPMANKFSSPTLELQGEFSPLQSSLPCDIHLVNLRTIQSKVGNGHSNEAALILHRKGFDCRFSSKGTGLFCSTTQGKILVQKLLNKFIVESLTPSSLSLMHSPPGTQNISEINLSPMEISTFRIQLR
modifications: bait human Fc-tagged dimer
B5: ADP392 (protein)
chain: GLTRSCDSSGDGGPGTAPAPSHLPSSTASPSGPPAQDQDICPASEDESGQWKNFRLPDFVNPVHYDLHVKPLLEEDTYTGTVSISINLSAPTRYLWLHLRETRITRLPELKRPSGDQVQVRRCFEYKKQEYVVVEAEEELTPSSGDGLYLLTMEFAGWLNGSLVGFYRTTYTENGQVKSIVATDHEPTDARKSFPCFDEPNKKATYTISITHPKEYGALSNMPVAKEESVDDKWTRTTFEKSVPMSTYLVCFAVHQFDSVKRISNSGKPLTIYVQPEQKHTAEYAANITKSVFDYFEEYFAMNYSLPKLDKIAIPDFGTGAMENWGLITYRETNLLYDPKESASSNQQRVATVVAHELVHQWFGNIVTMDWWEDLWLNEGFASFFEFLGVNHAETDWQMRDQMLLEDVLPVQEDDSLMSSHPIIVTVTTPDEITSVFDGISYSKGSSILRMLEDWIKPENFQKGCQMYLEKYQFKNAKTSDFWAALEEASRLPVKEVMDTWTRQMGYPVLNVNGVKNITQKRFLLDPRANPSQPPSDLGYTWNIPVKWTEDNITSSVLFNRSEKEGITLNSSNPSGNAFLKINPDHIGFYRVNYEVATWDSIATALSLNHKTFSSADRASLIDDAFALARAQLLDYKVALNLTKYLKREENFLPWQRVISAVTYIISMFEDDKELYPMIEEYFQGQVKPIADSLGWNDAGDHVTKLLRSSVLGFACKMGDREALNNASSLFEQWLNGTVSLPVNLRLLVYRYGMQNSGNEISWNYTLEQYQKTSLAQEKEKLLYGLASVKNVTLLSRYLDLLKDTNLIKTQDVFTVIRYISYNSYGKNMAWNWIQLNWDYLVNRYTLNNRNLGRIVTIAEPFNTELQLWQMESFFAKYPQAGAGEKPREQVLETVKNNIEWLKQHRNTIREWFFNLLESG
modifications: bait human Fc-tagged dimer
B6: ADP342 (protein)
chain: MATQLPAYVAILLFYVSRASCQDTFTAAVYEHAAILPNATLTPVSREEALALMNRNLDILEGAITSAADQGAHIIVTPEDAIYGWNFNRDSLYPYLEDIPDPEVNWIPCNNRNRFGQTPVQERLSCLAKNNSIYVVANIGDKKPCDTSDPQCPPDGRYQYNTDVVFDSQGKLVARYHKQNLFMGENQFNVPKEPEIVTFNTTFGSFGIFTCFDILFHDPAVTLVKDFHVDTIVFPTAWMNVLPHLSAVEFHSAWAMGMRVNFLASNIHYPSKKMTGSGIYAPNSSRAFHYDMKTEEGKLLLSQLDSHPSHSAVVNWTSYASSIEALSSGNKEFKGTVFFDEFTFVKLTGVAGNYTVCQKDLCCHLSYKMSENIPNEVYALGAFDGLHTVEGRYYLQICTLLKCKTTNLNTCGDSAETASTRFEMFSLSGTFGTQYVFPEVLLSENQLAPGEFQVSTDGRLFSLKPTSGPVLTVTLFGRLYEKDWASNASSGLT
modifications: bait human Fc-tagged dimer

These binders were tested against Circumsporozoite protein (CSP) (Plasmodium falciparum (isolate 3D7), UniProt Q7K740) (assay: AVEXIS screen signal:noise (double-corrected)).
Chain of Circumsporozoite protein (CSP) (Q7K740 19-374): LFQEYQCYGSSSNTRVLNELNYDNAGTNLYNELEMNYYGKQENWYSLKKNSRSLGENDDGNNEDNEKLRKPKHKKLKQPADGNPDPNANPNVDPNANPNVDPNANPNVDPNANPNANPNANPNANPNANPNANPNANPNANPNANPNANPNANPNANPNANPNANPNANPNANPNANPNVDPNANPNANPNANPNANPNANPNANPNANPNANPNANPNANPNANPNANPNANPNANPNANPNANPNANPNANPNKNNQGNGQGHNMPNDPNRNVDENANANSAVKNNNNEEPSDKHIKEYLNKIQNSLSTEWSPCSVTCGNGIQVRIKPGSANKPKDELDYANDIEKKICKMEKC

Compared with B1, B2 is higher in binding score: 0.981 for the first, 2.49 for the second.

Compared with B3, B4 is lower in binding score: 6.45 for the first, 0.79 for the second.

Going from B5 to B6, the binding score rises from 0.793 to 1.71.
